Source: US20060084789A1, “Immunotherapeutic and immunoprphylactic reagents” (priority 2002, published 2006)

Tests used:
[1] = tested on: oligoclonal house dust mite (HDM)- or low ammoniated latex (LAL)-reactive CD44^+ T cells; experiment: Mitogenicity check with irrelevant-antigen T cells and irradiated autologous PBMC; assay type: cell-based; settings: culture with HDM- or LAL-reactive T cells and irradiated autologous PBMC; data not shown
Description: Mitogenicity of RGP, Lol p 1, Lol p 5 and peptides was excluded by culturing with oligoclonal house dust mite (HDM)- or low ammoniated latex (LAL)-reactive CD44^+ T cells in the presence of irradiated autologous PBMC, and toxicity was excluded by co-culture of antigens with HDM- or LAL-reactive T cells in the presence of IL-2 (data not shown).

[2] = tested on: RGP-specific TCL; experiment: TCL proliferation assay (3H-thymidine incorporation, stimulation index); assay type: cell-based, human; settings: for TCL that responded, response to allergen or peptide: allergen responsiveness considered as response to allergen or peptide; for TCL tested that responded to purified allergen: ten of fourteen TCL (Lol p 1), nine of fifteen TCL (Lol p 5), positive if SI ≥2.5; for Proliferative response, stimulation index: peptides 10 μg/ml
Experimental: Generation of Short-Term RGP-Specific TCL
PBMC were cultured in 24-well plates (Costar, Mass., USA) at 2.5×10^6 cells/well with RGP extract at a concentration of 25 or 50 μg/ml in RPMI 1640 medium (Gibco BRL, NY, USA) supplemented with 2 mM GlutaMAX I (Gibco BRL), 0.05 mg/ml gentamicin (David Bull Laboratories, Mulgrave, Victoria, Australia) and 5% heat-inactivated hunan AB^+ serum (Sigma, Mo., USA) for 7 days at 37° C. in a 5% CO2 humidified incubator. At day 7, cells were washed once and restimulated in 24-well plates at 5×10^5 cells/well width 25 or 50 μg/ml of RGP extract in the presence of 5×10^5 cells/well irradiated (3000 rads) autologous PBMC as a source of antigen presenting cells (APC). At day 2 following restimulation, 10 U/ml of Lymphocult T-LF (LC; Biotest, Germany) was added as a source of IL-2 and at day 4, 1 ml of culture medium was removed and replaced with fresh medium and 10 U/ml of LC. […] In all experiments T cells were rested for 6 to 7 days after the last addition of antigen and APC before testing.
T cells (5×10^4/well) were cultured in 96-well U bottom plates with either RGP extract at concentrations ranging from 25 to 200 μg/ml, purified Lol p 1 (0.12 to 2 μg/ml) or Lol p 5 (0.1 to 10 μg/ml), or Lol p 1 or Lol p 5 peptides (10 μg/ml), or medium alone (to determine background levels of proliferation), in the presence of washed autologous irradiated (3000 rads) PBMC (5×10^4/well). […] Cultures were incubated for 3 days, pulsed for the last 16 hours with ^3H-thymidine (1 μCi/well) and harvested onto glass fibre filters. ^3H-thymidine incorporation was measured by liquid scintillation spectroscopy and the mean counts per minute (cpm) for triplicate cultures was determined. Responses were considered positive if the stimulation index (SI, cpm of antigen-stimulated T cells divided by cpm of unstimulated T cells) was ≧2.5. Where several concentrations of allergen were tested (i.e., RGP, Lol p 1 and Lol p 5), values corresponding to the highest proliferation are shown.

B1: Lol p 5: Rye grass pollen allergen purified from RGP extract by SDS-PAGE or affinity chromatography (mAb FMC A7) (protein)
chain: ADAGYTPAAAATPATPAATPAAAGGKATTDEQKLLEDVNAGFKAAVAAAANAPPADKFKIFEAAFSESSKGLLATSAAKAPGLIPKLDTAYDVAYKAAEGATPEAKYDAFVTALTEALRVIAGALEVHAVKPATEEVPAAKIPTGELQIVDKIDAAFKIAATAANAAPTNDKFTVFESAFNKALNECTGGAYETYKFIPSLEAAVKQAYAATVAAAPEVKYAVFEAALTKAITAMTQAQKAGKPAAAAATGAATVATGAATAAAGAATAAAGGYKA
- Mitogenicity [1]: excluded
- TCL that responded, response to allergen or peptide [2]: 91%
- TCL tested that responded to purified allergen [2]: 60%

B2: Lol p 1: Rye grass pollen allergen purified from crude RGP extracts by SDS-PAGE (protein)
chain: IAKVPPGPNITAEYGDKWLDAKSTWYGKPTGAGPKDNCGACGYKDVDKAPFNGMTGCGNTPIFKDGRGCGSCFEIKCTKPESCSGEAVTVTITDDNEEPIAPYHFDLSGHAFGSMAKKGEEQKLRASAGELELQFRRVKCKYPDGTKPTFHVEKASNPNYLAILVKYVDGDGDVVAVDIKEKGKDKWIELKESWGAVWRIDTPDKLTGPFTVRYTTEGGTKSEVEDVIPEGWKADTSYSAK
modifications: Lolium perenne
notes: Rye grass pollen allergen purified from crude RGP extracts by SDS-PAGE
- Mitogenicity [1]: excluded
- Proliferative response, stimulation index ([2]; Subject 1 TCL, Lol p 1 series (Table 3), RGP and Lol p 1 maximal response): 5.9
- Proliferative response, stimulation index ([2]; Subject 2 TCL, Lol p 1 series (Table 3), RGP and Lol p 1 maximal response): 3.0
- Proliferative response, stimulation index ([2]; Subject 4 TCL, Lol p 1 series (Table 3), RGP and Lol p 1 maximal response): 2.9
- Proliferative response, stimulation index ([2]; Subject 5 TCL, Lol p 1 series (Table 3), RGP and Lol p 1 maximal response): 2.5
- Proliferative response, stimulation index ([2]; Subject 6 TCL, Lol p 1 series (Table 3), RGP and Lol p 1 maximal response): 4.0
- Proliferative response, stimulation index ([2]; Subject 8 TCL, Lol p 5 series (Table 4), RGP and Lol p 5 maximal response): 4.3
- Proliferative response, stimulation index ([2]; Subject 11 TCL, Lol p 5 series (Table 4), RGP and Lol p 5 maximal response): 3.4
- Proliferative response, stimulation index ([2]; Subject 15 TCL, Lol p 1 series (Table 3), RGP and Lol p 1 maximal response): 0.3
- Proliferative response, stimulation index ([2]; Subject 19 TCL, Lol p 1 series (Table 3), RGP and Lol p 1 maximal response): 10.5
- Proliferative response, stimulation index ([2]; Subject 27 TCL, Lol p 5 series (Table 4), RGP and Lol p 5 maximal response, † affinity purified Lol p 5): 3.8†
- Proliferative response, stimulation index ([2]; Subject 38 TCL, Lol p 5 series (Table 4), RGP and Lol p 5 maximal response, * SDS-PAGE purified Lol p 5): 3.2*
- TCL that responded, response to allergen or peptide [2]: 79%
- TCL tested that responded to purified allergen [2]: 71%
